Experimental data published in US20210032294A1, “MODIFIED PlySs2 LYSINS AND USES THEREOF” (CONTRAFECT CORPORATION, priority 2018, published 2021).
Numbering of substitutions follows the chain as printed. Names may count otherwise. “And” between values parts separate entries of the source, which are not always exact repeats. Equal values may be shown once.

B1: pp55: Modified PlySs2 lysin, SEQ ID NO: 3: L92W, V104S, V128T, Y137S; extra C-terminal lysine (+246K) (protein)
chain: MTTVNEALNNVRAQVGSGVSVGNGECYALASWYERMISPDATVGLGAGVGWVSGAIGDTISAKNIGSSYNWQANGWTVSTSGPFKAGQIVTWGATPGNPYGHVSIVEAVDGDRLTILEQNYGGKRYPTRNYYSAASSRQQVVHYITPPGTVAQSAPNLAGSRSYRETGTMTVTVDALNVRRAPNTSGEIVAVYKRGESFDYDTVIIDVNGYVWVSYIGGSGKRNYVATGATKDGKRFGNAWGTFK
B2: pp61: Modified PlySs2 lysin, SEQ ID NO: 4: L92W, V104S, V128T, Y137S, S198H, I206E; +246K (protein)
chain: B1 chain with S198H, I206E
B3: pp65: Modified PlySs2 lysin, SEQ ID NO: 5: L92W, V104S, V128T, Y137S, S198Q, V204A, V212A; +246K (protein)
chain: B1 chain with S198Q, V204A, V212A

System: bacterial inoculum
Assay: Thermal stability: in vitro lytic assay after 30 min heating
Type: cell-based
Settings: 30 minutes at 37° C., 128 μg/mL in Tris buffer pH 8.0; CF-301 set at 100
Description: Thermal stability was assessed by incubating the lysin polypeptides at a fixed concentration of 128 μg/mL in Tris buffer pH 8.0 for 30 minutes at various elevated temperatures (within the range of about 30° C. to 60° C.) prior to assessing activity. The samples were then cooled for 2 minutes on ice and activity was then assessed by an in vitro lytic assay by exposing a bacterial inoculum (OD600 ˜0.5-1.2) in Tris buffer to a 2-fold dilution series of each sample (diluted from 128-0.25 μg/mL across the x-axis of a 96 well microtiter plate). The loss of optical density was followed for 15 minute at room temperature, and the specific activity was determined based on the enzyme concentration enabling a 50% loss of optical density at 15 minutes. The enzyme activities of each variant were compared to the wild-type, CF-301 enzyme (GMT-grade PlySs2 protein) to calculate the % of Wild-Type Activity over a range of temperatures.
The thermal stability of wild-type, CF-301 was arbitrarily set at 100. The results for exemplary modified lysin polypeptides are set forth below in Table 5 at a single temperature of 37° C.:
In another experiment, the thermal stability of modified lysin polypeptides was assessed at different temperatures and compared with that of wild-type, CF-301 (set at 100).

Q: Which “% Wild-Type Activity at 37° C.” value does the source give for B1 here?
A: 122% and 146%

Q: Which “% Wild-Type Activity at 37° C.” value does the source give for B2 here?
A: 258%

Q: With B3 as the molecule, how does the “% Wild-Type Activity at 37° C.” value read?
A: 220%

Same assay, conditions: 30 minutes at 37° C.; another experiment

Q: For B1, which “% of CF-301 wild-type, 37° C.” value is on record?
A: 122.1%

Q: Which “% of CF-301 wild-type, 37° C.” value does the source give for B2 here?
A: 258.3%

Q: For B3, which “% of CF-301 wild-type, 37° C.” value is on record?
A: 219.9%

Same assay, conditions: 30 minutes at 40° C.

Q: With B1 as the molecule, how does the “% of CF-301 wild-type, 40° C.” value read?
A: 110.8%

Q: Which “% of CF-301 wild-type, 40° C.” value does the source give for B2 here?
A: 149.1%

Q: For B3, which “% of CF-301 wild-type, 40° C.” value is on record?
A: 248.4%

Same assay, conditions: 30 minutes at 42° C.

Q: With B1 as the molecule, how does the “% of CF-301 wild-type, 42° C.” value read?
A: 116.7%

Q: Which “% of CF-301 wild-type, 42° C.” value does the source give for B2 here?
A: 189.4%

Q: With B3 as the molecule, how does the “% of CF-301 wild-type, 42° C.” value read?
A: 270.4%

Same assay, conditions: 30 minutes at 45° C.

Q: Which “% of CF-301 wild-type, 45° C.” value does the source give for B1 here?
A: 82.0%

Q: For B2, which “% of CF-301 wild-type, 45° C.” value is on record?
A: 80.0%

Q: For B3, which “% of CF-301 wild-type, 45° C.” value is on record?
A: 82.1%

Same assay, conditions: 30 minutes at 48° C.

Q: With B1 as the molecule, how does the “% of CF-301 wild-type, 48° C.” value read?
A: 36.5%

Q: For B2, which “% of CF-301 wild-type, 48° C.” value is on record?
A: 0.0%

Q: With B3 as the molecule, how does the “% of CF-301 wild-type, 48° C.” value read?
A: 0.0%

Same assay, conditions: 30 minutes at 50° C.

Q: Which “% of CF-301 wild-type, 50° C.” value does the source give for B1 here?
A: 11.2%

Q: Which “% of CF-301 wild-type, 50° C.” value does the source give for B2 here?
A: 0.0%

Q: With B3 as the molecule, how does the “% of CF-301 wild-type, 50° C.” value read?
A: 0.0%

System: S. aureus isolate CFS-860
Assay: Mouse neutropenic thigh infection (MNTI) model
Type: in vivo, Staphylococcus aureus
Settings: neutropenic BALB/cByJ mice, intravenous, dose response, 24 hours
Description: The efficacy of four modified lysin polypeptides was compared to wild-type PlySs2 in a dose response (0-60 mg/kg) assay using a mouse neutropenic thigh infection (MNTI) model.
Bacterial inoculum was generated by allowing bacterial cells to grow to exponential phase in MHB until they reached an optical density (OD) of about 0.5 at 600 nm. The bacterial cells were thoroughly washed, resuspended in 0.9% sodium chloride USP, and diluted to an equivalent of 3.9×10^8 colony forming units (CFU)/mL. Cells were further diluted as described below in 0.9% sodium chloride USP and maintained on wet ice.
Neutropenia was induced in female BALB/cByJ mice (5-7 weeks, Jackson Laboratories) by intraperitoneal (ip) administration of 150 mg/kg and 100 mg/kg of cyclophosphamide 4 and 1 days prior to inoculation of bacteria, respectively. Bacterial inoculum (S. aureus isolate CFS-860, 100 μl of 10^7 CFU/ml solution) was injected intramuscularly (IM) into both posterior thighs of each mouse. […] At 2 hours post-inoculation (Early Control) and 24 hours post-treatment initiation, animals were euthanized (CO2 asphyxiation), and the thighs were aseptically removed. Each thigh was weighed, placed into 4 ml sterile saline and homogenized in 7 ml lysing tubes using a Precellys24 high-throughput tissue homogenizer (Bertin Corp, Rockville, Md.). Dilutions of homogenate were plated on tryptic soy blood agar plates (Becton Dickinson) and incubated at 37° C. overnight in a CO2 incubator. Bacterial burden was enumerated and expressed as log 10 CFU/g of thigh weight and compared to control animals harvested at 2 hours post infection (Early Control) and animals treated with vehicle (Late Control).
The data representing mouse thigh bacterial burden are depicted in FIG. 2. The upper dot on the y-axis is vehicle alone, and the lower dot on the y-axis is the Early Control. pp1149 is in fact also a wild-type lysin over-expressed and purified in the laboratory along with the other modified lysin polypeptides and used as an additional positive control.

Q: With B1 as the molecule, how does the “Bactericidal efficacy (thigh bacterial burden) versus wild type” value read?
A: activity comparable to wild-type PlySs2 lysin

Q: For B2, which “Bactericidal efficacy (thigh bacterial burden) versus wild type” value is on record?
A: activity comparable to wild-type PlySs2 lysin

Q: Which “Bactericidal efficacy (thigh bacterial burden) versus wild type” value does the source give for B3 here?
A: activity comparable to wild-type PlySs2 lysin

System: not listed separately
Assay: Toxicity screening in mice
Type: in vivo
Settings: 30 mg/kg
Description: Selected modified lysin polypeptides from Table 3 were subjected to further testing as described in more detail in subsequent Examples. […] The same 30 mg/kg dose of PlySs2 caused a 100% incidence of adventitial findings, which is an indication of potential toxicity.

Q: With B1 as the molecule, how does the “Adventitial findings (lesions)” value read?
A: did not result in adventitial lesions

Q: For B2, which “Adventitial findings (lesions)” value is on record?
A: did not result in adventitial lesions

Q: For B3, which “Adventitial findings (lesions)” value is on record?
A: did not result in adventitial lesions
